# B1: Bcl-2-like protein 11 (Mus musculus), O54918-1 (parent)
# chain: MAKQPSDVSSECDREGGQLQPAERPPQLRPGAPTSLQTEPQGNPDGEGDRCPHGSPQGPLAPPASPGPFATRSPLFIFVRRSSLLSRSSSGYFSFDTDRSPAPMSCDKSTQTPSPPCQAFNHYLSAMASIRQSQEEPEDLRPEIRIAQELRRIGDEFNETYTRRVFANDYREAEDHPQMVILQLLRFIFRLVWRRH
# B2: Bcl-2-like protein 11 (Mus musculus), O54918-1 (parent)
# chain: B1 chain
# partner: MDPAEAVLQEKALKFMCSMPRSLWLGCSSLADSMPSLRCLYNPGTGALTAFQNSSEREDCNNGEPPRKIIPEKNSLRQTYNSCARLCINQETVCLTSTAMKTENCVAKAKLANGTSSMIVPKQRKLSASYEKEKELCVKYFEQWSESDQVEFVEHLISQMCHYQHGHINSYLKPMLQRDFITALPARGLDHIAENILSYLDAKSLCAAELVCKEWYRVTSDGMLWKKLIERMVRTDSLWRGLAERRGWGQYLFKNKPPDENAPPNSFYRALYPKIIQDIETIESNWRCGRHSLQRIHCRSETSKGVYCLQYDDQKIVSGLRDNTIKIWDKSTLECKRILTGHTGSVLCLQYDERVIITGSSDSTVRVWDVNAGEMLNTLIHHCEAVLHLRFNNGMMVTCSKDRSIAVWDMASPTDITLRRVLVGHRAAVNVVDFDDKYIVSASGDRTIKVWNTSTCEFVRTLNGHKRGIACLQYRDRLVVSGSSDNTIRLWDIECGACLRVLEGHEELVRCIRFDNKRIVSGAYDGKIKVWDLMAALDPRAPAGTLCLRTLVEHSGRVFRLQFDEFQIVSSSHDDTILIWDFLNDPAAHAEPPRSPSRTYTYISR
# Variants of: B1
# Conditions: with kapca_human PRKACA
row,effect of a mutation on the interaction,Variant
1,disrupting interaction,S83A

# Variants of: B2
# Conditions: with fbw1a_mouse Btrc
row,effect of a mutation on the interaction,Variant
1,increasing interaction,S83A
